# B1: CPEB3 Ribozyme (parent)
# chain: GGGGGCCACAGCAGAAGCGUUCACGUCGCGGCCCCUGUCAGAUUCUGGUGAAUCUGCGAAUUCUGCUGU
# Variants of: B1
# Assay: self-cleavage, relative activity (ratio to wild type); higher = more cleavage; co-transcriptional
row,Variant,self-cleavage
1,GGGGGCUACAGCAGAAGCGUUCACGUCGCGGCCCCUGUCAGAUUCUGGUGAAUCUGCGAACUCUGCUGU [C7U U61C],0.492
2,GGGGGCUACAGCAGAAGCGUUCACGUCGCGGCCCCUGUCAGAUUCUGGUGAAACUGCGAAUUCUGCUGU [C7U U53A],0.861
3,GGGGGCUACAGCAGAAGCGUUCACGUCGCGGCCCCUGUCAGAUUCUGGUGAAGCUGCGAAUUCUGCUGU [C7U U53G],0.949
4,GGGGGCUACAGCAGAAGCGUUCACGUCGCGGCCCCUGACAGAUUCUGGUGAAUCUGCGAAUUCUGCUGU [C7U U38A],0.774
5,GGGGGCUACAGCAGAAGCGUUCACGUCGCGGCCCCUGCCAGAUUCUGGUGAAUCUGCGAAUUCUGCUGU [C7U U38C],0.819
6,GGGGGCUACAGCAGAAGCGUUCACGUCGCGGCCCCUGGCAGAUUCUGGUGAAUCUGCGAAUUCUGCUGU [C7U U38G],0.193
7,GGGGGCUACAGCAGAAGCGUUCACGUCGCGGCCCCUGUCAGAUUCUGGUGAAUCUGCGAAUUCUGGUGU [C7U C66G],0.898
8,GGGGGCUACAGCAGAAGCGUUCACGUCGCGGCCCCUGUCAGAUUCUGGUGAAUCUGCCAAUUCUGCUGU [C7U G58C],0.873
9,GGGGGCUACAGCAGAAGCGUUCACGUCGCGGCCCCUGUCAGAUUCUGGUGAAUCUGCAAAUUCUGCUGU [C7U G58A],0.928
10,GGGGGCUACAGCAGAAGCGUUCACGUCGCGGCCCCUGUCAGAUUCUGGUGAAUCUGCGAAUCCUGCUGU [C7U U62C],0.725
11,GGGGGCUACAGCAGAAGCGUUCACGUCGCGGCCCCUGUCAGAUUCUGGUGAAUCUGCGAAUGCUGCUGU [C7U U62G],0.595
12,GGGGGCUACAGCAGAAGCGUUCACGUCGCGGCCCCUGUCAGAUUCUGGUGAAUCUGCGAAUACUGCUGU [C7U U62A],0.638
13,GGGGGCUACAGCAGAAGCAUUCACGUCGCGGCCCCUGUCAGAUUCUGGUGAAUCUGCGAAUUCUGCUGU [C7U G19A],0.113
14,GGGGGCUACAGCAGAAGCCUUCACGUCGCGGCCCCUGUCAGAUUCUGGUGAAUCUGCGAAUUCUGCUGU [C7U G19C],0.155
15,GGGGGCUACAGCAGAAGCUUUCACGUCGCGGCCCCUGUCAGAUUCUGGUGAAUCUGCGAAUUCUGCUGU [C7U G19U],0.247
16,GGGGGCUACAGCAGAAGCGUUCACGUCGCGGCCCCUGUCAGAUUCUGGUGAAUCUGCGAAUUCCGCUGU [C7U U64C],0.794
17,GGGGGCUACAGCAGAAGCGUUCACGUCGCGGCCCCUGUCAGAUUCUGGUGAAUCUGCGAAUUCAGCUGU [C7U U64A],0.908
18,GGGGGCUACAGCAGAAGCGCUCACGUCGCGGCCCCUGUCAGAUUCUGGUGAAUCUGCGAAUUCUGCUGU [C7U U20C],0.158
19,GGGGGCUACAGCAGAAGCGAUCACGUCGCGGCCCCUGUCAGAUUCUGGUGAAUCUGCGAAUUCUGCUGU [C7U U20A],0.112
20,GGGGGCUACAGCAGAAGCGUUCACGUCGCGGCCCCUGUCAGAUUCUGGUGAAUCUGUGAAUUCUGCUGU [C7U C57U],0.305

row,Variant,self-cleavage
1,GGGGGCUACAGCAGAAGCGUUCACGUCGCGGCCCCUGUCAGAUUCUGGUGAAUCUCCGAAUUCUGCUGU [C7U G56C],0.618
2,GGGGGCUACAGCAGAAGCGUUCACGUCGCGGCCCCUGUCAGAUUCUGGUGAAUCUUCGAAUUCUGCUGU [C7U G56U],0.849
3,GGGGGCUACAGCAGAAGCGUUCACGUCGCGGCCCCUGUCAGAUUCUGGUGAAUCUGCGAAUUCUGCCGU [C7U U67C],0.982
4,GGGGGCUACAGCAGAAGCGUUCACGUCGCGGCCCCUGUCAGAUUCUGGUGAAUCUGCGAAUUCUGCAGU [C7U U67A],0.985
5,GGGGGCUACAGCAGAAGCGUUCACGUCGCGGCCCCUGUCAGAUUCUGGUGAAUCUGCGAAUUCUGCGGU [C7U U67G],0.959
6,GGGGGCUACAGCAGAAUCGUUCACGUCGCGGCCCCUGUCAGAUUCUGGUGAAUCUGCGAAUUCUGCUGU [C7U G17U],0.243
7,GGGGGCUACAGCAGAACCGUUCACGUCGCGGCCCCUGUCAGAUUCUGGUGAAUCUGCGAAUUCUGCUGU [C7U G17C],0.122
8,GGGGGCUACAGCAGAAACGUUCACGUCGCGGCCCCUGUCAGAUUCUGGUGAAUCUGCGAAUUCUGCUGU [C7U G17A],0.175
9,GGGGGCUACAGCAGAAGCGUUCACGUCGCGGCCCCUGUCAGAUUCCGGUGAAUCUGCGAAUUCUGCUGU [C7U U46C],0.973
10,GGGGGCUACAGCAGAAGCGUUCACAUCGCGGCCCCUGUCAGAUUCUGGUGAAUCUGCGAAUUCUGCUGU [C7U G25A],0.144
11,GGGGGCUACAGCAGAAGCGUUCACCUCGCGGCCCCUGUCAGAUUCUGGUGAAUCUGCGAAUUCUGCUGU [C7U G25C],0.0703
12,GGGGGCUACAGCAGAAGCGUUCACGUCGCGGCCCCUGUCAGAUUCUCGUGAAUCUGCGAAUUCUGCUGU [C7U G47C],0.917
13,GGGGGCUACAGCAGAAGCGUUCACGUCGCGGCCCCUGUCAGAUUCUAGUGAAUCUGCGAAUUCUGCUGU [C7U G47A],0.954
14,GGGGGCUACAGCAGAAGCGUUCACGUCGCGGCCCCUGUCAGAAUCUGGUGAAUCUGCGAAUUCUGCUGU [C7U U43A],0.828
15,GGGGGCUACAGCAGAAGCGUUCACGUCGCGGCCCCUGUCAGACUCUGGUGAAUCUGCGAAUUCUGCUGU [C7U U43C],0.967
16,GGGGGCUACAGCAGAAGCGUUCACGUCGCGGCCCCUGUCAGAUUCUGGUUAAUCUGCGAAUUCUGCUGU [C7U G50U],0.96
17,GGGGGCUACAGCAGAAGCGUUCACGUCGCGGCCCCUGUCAGAUUCUGGUCAAUCUGCGAAUUCUGCUGU [C7U G50C],0.965
18,GGGGGCUACAGCAGAAGCGUUCACGUCUCGGCCCCUGUCAGAUUCUGGUGAAUCUGCGAAUUCUGCUGU [C7U G28U],0.146
19,GGGGGCUACAGCAGAAGCGUUCACGUCCCGGCCCCUGUCAGAUUCUGGUGAAUCUGCGAAUUCUGCUGU [C7U G28C],0.197

# From the RNAGym collection of RNA variant scans (doi:10.7554/elife.80360)
